Experimental data as given in publication doi:10.1101/2022.06.02.494578.

Legend:
[1] = target: taxol-stabilised microtubules polymerised from pig brain tubulin (pig) (UniProt P02550); assay: TIRF imaging of labeled Lis1 on microtubules
[2] = target: taxol-stabilised microtubules polymerised from pig brain tubulin (pig) (UniProt P02550); assay: co-sedimentation

taxol-stabilised microtubules polymerised from pig brain tubulin (pig), sequence (P02550 whole entry): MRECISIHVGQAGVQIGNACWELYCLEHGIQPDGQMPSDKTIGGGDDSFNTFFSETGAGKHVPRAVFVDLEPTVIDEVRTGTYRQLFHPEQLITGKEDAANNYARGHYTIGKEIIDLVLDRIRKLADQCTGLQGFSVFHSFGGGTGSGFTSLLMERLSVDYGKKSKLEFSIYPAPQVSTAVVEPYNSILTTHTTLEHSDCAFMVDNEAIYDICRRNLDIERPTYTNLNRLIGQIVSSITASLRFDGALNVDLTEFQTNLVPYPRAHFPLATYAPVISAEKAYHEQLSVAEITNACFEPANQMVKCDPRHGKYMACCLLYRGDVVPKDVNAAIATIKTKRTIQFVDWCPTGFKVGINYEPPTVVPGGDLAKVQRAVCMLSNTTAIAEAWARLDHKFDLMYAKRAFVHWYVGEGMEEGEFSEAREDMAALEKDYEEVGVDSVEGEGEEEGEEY
Lis1 (Pac1, the Lis1 homolog in S. cerevisiae), wild-type dimer, sequence (P39946 whole entry): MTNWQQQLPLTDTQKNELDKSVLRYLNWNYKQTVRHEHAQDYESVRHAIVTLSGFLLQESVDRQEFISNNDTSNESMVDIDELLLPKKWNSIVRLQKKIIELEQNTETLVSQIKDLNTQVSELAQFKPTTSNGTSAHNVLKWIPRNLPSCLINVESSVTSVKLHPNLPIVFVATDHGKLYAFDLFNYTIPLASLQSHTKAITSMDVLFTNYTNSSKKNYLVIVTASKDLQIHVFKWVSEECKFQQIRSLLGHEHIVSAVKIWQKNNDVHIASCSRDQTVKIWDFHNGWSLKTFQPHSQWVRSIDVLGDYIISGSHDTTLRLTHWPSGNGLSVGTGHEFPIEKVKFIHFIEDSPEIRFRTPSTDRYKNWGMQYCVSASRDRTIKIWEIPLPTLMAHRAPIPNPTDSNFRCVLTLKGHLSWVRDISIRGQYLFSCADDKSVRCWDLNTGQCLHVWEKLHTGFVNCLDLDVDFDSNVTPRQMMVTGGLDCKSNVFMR
monomeric Lis1 lacking its amino-terminal dimerization domain (domain or fragment), sequence (A6ZPA6 whole entry, the tested form may be a part): as the sequence (P39946 whole entry) above

Substance	time to dissociation from the microtubule [1]	Kd [2]	percent of Lis1 intensity on microtubules lost after washing [1]	residence time on the microtubule [1]
monomeric Lis1 lacking its amino-terminal dimerization domain (domain or fragment)	1 to 2 s			
Lis1 (Pac1, the Lis1 homolog in S. cerevisiae), wild-type dimer (from UniProt P39946 1-494) (natural protein)		88 nM	92%	19.3 s
